Results reported in the DeepSol protein solubility set.

test: soluble on expression in E. coli; label from the status in PepcDB or PDB records

Sequence | soluble on expression in E. coli
MGSDKIHHHHHHAEAGVFSDVPTSHWSYPAIKDLAGKNIISGYGNGKFGFGDVATREQVAALIYRALLPNKQGGTFSNDGARYVLQDGSTLNNPYRDIRSGSTLFPEEVLTLTKLGVFNGDGNGGFRPKDSVSRAEMAQIIKNAFQVSAKQKHTFNDVPDGFWAEGAISAVQSNGIASGTGDGKFEPAKTVTREQYAQFLYNALQYKKPAVAVQDTGDAALLAAFKDEVQKRINAYETNITLPYKTTNSNTKEVMNTLFNAYKEVASKNEYTNNNRSNVSYGLSGSPGNYTFTLKITYRETKEQTEYVMKQAKAIVSSITQVGMDDHEKVKAIHDYVVKHVSYDTSYKAYTAYEALVNRSAVCQGYALLTYQLLKEAGIENHFVVGTGDGQPHAWNLVKIENKWYHLDTTFDDPVPDEQGRVTYSYFNLSDEQIARNHEWNRGDYPQATTNYYSTLTNKIAAGGTKTSAYQQILKDTKLNYLGNEYIANNYNEFKNKMQQRYNEKSPKIEILYKQSMDGALQDVKKAIGEIGYPQGANRVSYKAEPYNAKEGYSLVTITFM | not soluble
MSLANYIKDIREKVGHMPLIMVGVGAAYIKEEKVLLQERADTGGWGLPGGYMEYGESIEQTLKREFKEDAGLEIIDYKFLKNFDREFFKYPNGDQTQVLTPFYLVTKVKEGKPQFDPHETSRVDFFDFNDLPEIHFASHKRILTYLQDILEGHHHHHH | not soluble
MGSDKIHHHHHHMPDFSYAKITKLVVHFAGNKAREEGTEVSANVLQDIGSEMNQTLASIFLEPFTKDDYYQFSHETDLDFNEVRTFAANMFGAEEEFLDESKKILEHLYSETTHPNIKSGDVWIFFIEGCVVDGDFTNGIGIFKVENKEVFLKNDFNGSEFQIGYDKGITGTDLDKGCLIFNVDHDSGNKVLILDRLNRGDSVYWKDKFLSIDKITDEKFYTEGFVEVCTDYIKQREESLLDKSNFVKATSEYLAGEETLNIAEFARTTIEKPEEITEFNTMVDTFERENNVRFPETFQLDEEKREKLSKKIRKTIKLGKNISVVVKDLEQLEETDFVQGYDEEKGKNYMIVYYD | not soluble
MVSKKKALEMIDVIANMFPDAECELKHDNPFELTIAVLLSAQCTDVLVNRVTTELFKKYKTPEDYLAVSDEELMNDIRSIGLYRNKAKNIKKLCQSLIDQFNGEIPQTHKELESLAGVGRKTANVVMSVAFDEPSLAVDTHVERVSKRLGINRWKDNVRQVEDRLCSVIPRDRWNRSHHQLIFFGRYHCLARKPKCDICPLLEDCREGQKRYKASLKEA | not soluble
KTHFVIQLKEDSQLMDEVVVVGFGTQKKINLTGAVTAVNIQETLGDRPITNVTAALQGVVPGLKIEGTTGTPGDNLSYNIRGTTSINGGGPLVLVNNVPMDINMIDPQDIESVSVLKDAASAAIYGARAAFGVILITTKQGKKDM | not soluble
MGSDKIHHHHHHMLENTGLVLEGGGMRGVYTGGILEYFMEQDLYFPYVIGVSAGACHAASYLSRQRNRNKTVNIDYASHPKYLSYKNLWRKRQLFDMDFIFHEIPEKHVPFDFETYFNSPERFLVGTTDCETGQSVYFEKEGTNDDALNLLQASSSLPFIAPVVNYRGKQLLDGGISDPIPVRKAQEDGFKKSVVILTRNHGYAKKKSRFGWIAAKAYKKYPNLVNTMLNRYEVYNETLHYIEKEEQAGNLFVIRPEVPLQVDRMEKDTAKLQNLYEQGYEDAKRQFADLKAFLQK | not soluble
MYSLIRHGRSLVELQKWRHLRVLVQKASPLSNSFSSASAARLSPRVGRKGKSFTVSYLVDSLGLPKKLAESVSRKVSFEDKDNPDSVLNLLRSHGFTDSQISTIVTDYPQLLVADAEKSLAPKLQFLQSRGASSSELTEIVSTVPKILGKRGHKTISVFYDFIKETLLDKSSKSEKSCQPFPQGNLENKIRNLSVLRELGMPHKLLFPLLISCDVPVFGKEKFEESLKKVVEMGFDPSTSKFVEALCVVQRLSDKNIEDKVNAYKRLGFDVEYVWTVFKRWPNFLTHSEKKILNTIETFLGLGFSRDEFSVLIKRFPQGIGLSAEMVKKKTEFLVKKMNWPLKALVSNPAVLGYSLEKRTVPRGNVVQALISKGLIGSELPSISRVFVCTDQVFLNRYVKRHEDKQLETELMAIYRAS | soluble
MGSDKIHHHHHHVKSELIWSKALETSRKAIDCAAVIPLETYKYKSIKKCFDFELRFLKRTFPKNLIDYGPKANPFIPWDRRLEVQAVNDNYTIILNKYPVQLGHLLLISNYWKPQNSWLSIDDFEAIAKVDNDTTGLWFFNSSKDAGASQPHRHFQLLRRDKYENICPRYEWFCSLLNNSEGFNSDIKQCISIKPRKSKLDIDAHDLFNSYKSMIIEMDLGNINNDDKPLKPYNLLITEKWISLIVRSKDRAHGFGINALGFAGYFLGTRRSDIDMLIKFGPESILKDVI | not soluble
MGSDKIHHHHHHMLSRVAENLYWMARYLERTEDMARLINATTLLLLDLPQGAEFGWDILLQVTGDAKLYMEHYGTPEEGRIMRFLIADERNPNSVMAAIHQARENCRTFRDLLPAEFWERLNTLFLFVREHAGTSSDSRHARYAFLNEVISRRHALVGLLISSMSQDNVYQFIKLGRNMERADMTTRIVDVTSAVILPQDQGLQKTTTSSLWLGVLRALSAFEMYRRHVSVQVRSNQVVDYLLKDNKFPRSMKYCLGEMEVALAYLPNAGIPAEAVRRARRRLDALKLANLRPDLLHEYLDQAQKDLAMVHRTIHGTYFARDDTGFDGVPSGLLLNAAQA | not soluble
MGSSHHHHHHSSGLVPRGSPQPPADEQPEPRTRRRAYLWCKEFLPGAWRGLREDEFHISVIRGGLSNMLFQCSLPDTTATLGDEPRKVLLRLYGAILQMRSCNKEGSEQAQKENEFQGAEAMVLESVMFAILAERSLGPKLYGIFPQGRLEQFIPSRRLDTEELSLPDISAEIAEKMATFHGMKMPFNKEPKWLFGTMEKYLKEVLRIKFTEESRIKKLHKLLSYNLPLELENLRSLLESTPSPVVFCHNDCQEGNILLLEGRENSEKQKLMLIDFEYSSYNYRGFDIGNHFCEWMYDYSYEKYPFFRANIRKYPTKKQQLHFISSYLPAFQNDFENLSTEEKSIIKEEMLLEVNRFALASHFLWGLWSIVQAKISSIEFGYMDYAQARFDAYFHQKRKLGV | soluble
MGSDKIHHHHHHMSEVHTTIIDLDAGAVFSGTPSGRIIKGFDKPCAHTPNIDPDYVFHECSRDIVVWLMDSSDPLYVFGPTGSGKTSAIKQLAARLNYPVFDVTGHGRLEFPDLVGHLSVRDGSMEFQYGPLALAMRHGGILLLNEIDLLEPATATGFNGILDGEPLCIPENGGEIITPHPMFRFAATANTNGGSDDTGLYQGTLRQNLAFLDRFWLCEMPYPAPEAEKALLERRAPMLPDDIRTRMVDYANEVRRLFMGESGTTYGHSIEVTFSTRTLLRWADLTVRFQPLARQGIQPLTYALDRALGFKASKDTRTTLHELAQRLFPQHAATGE | not soluble
MSDEGLAPGKRLSEIRQQQGLSQRRAAELSGLTHSAISTIEQDKVSPAISTLQKLLKVYGLSLSEFFSEPEKPDEPQVVINQDDLIEMGSQGVSMKLVHNGNPNRTLAMIFETYQPGTTTGERIKHQGEEIGTVLEGEIVLTINGQDYHLVAGQSYAINTGIPHSFSNTSAGICRIISAHTPTTF | not soluble
MSIHICQPVSPKENPNGILNNSRPTTALSGLPELHTVGQGADLEIWTKDSHALLFLLKGEPAVFVGPESGNSQLSGDNVVLLAANLRIRLRAEKGPATLICFYFHPTLHLCLGICPSSGNKKECRRRTEIVHISSLQRETMVNSWLHSVMGYLSEMPTSSEIFELKLRELFCIFRSRYEKPLLDNFLSSFHCQNKGFRAFVFRHHLECRSAEELAAKMNLSLSSFKRHFNQEFSCPPLKWMHEERAKHVYTDLADPSLSLKAIAEKNLFSSVSYLCAFCRKMLGNTPLQLRKAMGQQPK | not soluble
MGSDKIHHHHHHMNDINLLPLTSAYLDLILEWRNNPEVRRNMYTSHVISKAEHYAWFKKLESDNTKQCFIFVLNGVPSGFISFVDINLNSKSATWAFYSGNTSVRGIGSLMEVSALNYAFSTLGLHKLSCEVLEFNNMVVRFHEKYGFHVEGVFKKHHFSEGEYWDIYRLAIFNEEWARCKLEINLKKQSISPGSSYRENVFFTNENIIGFSALSGDCNQIHLNKQYAIKNGFDNNLVHGFLVGSVFSKVFGTRFPGDGCIYISQSLSFLSPVYPDDLLEASFVVLSKIGRKLVVETSITNLHSNKKVIDGVAELLISMDSQIGYLNQYL | not soluble
AIAYASETASTQGLPALELDPEELLAQVQLLRAAVEGSRRESRELVGALERERRLNLEMRQRFERQFAAVSDQLLQLNHLQKESEALLQSLQEQLNEAELQKNAAQRELACVQRQLSLARAEADAGKRVLTTIAEKEALLRKTSQANADLQQIVMHLQAELRNSELQPSTSNASEERLHEAEIPSLADRDAYQTLQQTIEKLSAERDMWYHECARAKEESLRLQQDAERLRGLLDEQQRVHTTTQTLLQDRHLLMRRIIAALAEKYLMEKLPNQHYTQEIDSSPFQARGGTSVQEAHKHERLRRARSF | soluble
MKRLRCIREIERQRGTRVIAMIHRQEALTFLGIPIYKFITIEDSEEILRAIRLTPEDMPIDLIIHTPGGLALASEQIALALKEHKAKTTVIIPHYAMSGGSLIALAADEIIMDKNAVMGPVDPQIGQYPAASILEAYYRKGEKVSDETLILVDISKKAIKQMEEFVYELLKDKYGDEKAKEIAKKLTSGTW | not soluble
MAVPEGNSWTYTAASASITAPAQLVGNVGELQGAGSAVIWNVDVPVTGEYRINLTWSSPYSSKVNTLVMDGTALSYAFAEATVPVTYVQTKTLSAGNHSFGVRVGSSDWGYMNVHSLKLELLGGLTIRSPANLEHHHHHH | soluble
GPGSMLRRQLHLSAIGGVSAAAAAVLDGIGPSSAAAATGTLSSSSTSLSVMASVSPLLMPCRGVKLVNPIGKQGSQHYGLEPKLEAGRDTQLKHTEMYDGYTDDFGVFKEGPPVTLRLEYVRSPDHGYSQHILQKDIWSPFQVGANMMSYTPLYYDWKGFSSRDYFGHRSGTNPGSKVLLGHYRRDEVRSWGYRIMVNHKPQKRIPKWLACVVHIPRKKTFLGFFLYANGAYVAELLTYKQLPRIIYNKAFQGCLPTIGQTVSLTEVTYGKEIHSVEMYPGHGGVICRASGTAAVVLRGSEPNLVPLLLPSKEVRLFDNMCHAVFGRRAGVMYNKQRNFSKRSVEENMPHRPKVHSKTKRVSSHPAGGGNGGSPNLLTPLDWRIHPRNCVKTKYWLSGYILRGRQYNRNQTVADLKSKTYSWANRDPVYR | not soluble
MLLSVPLLLGLLGLAAADPAIYFKEQFLDGDAWTNRWVESKHKSDFGKFVLSSGKFYGDLEKDKGLQTSQDARFYALSAKFEPFSNKGQTLVVQFTVKHEQNIDCGGGYVKLFPSGLDQKDMHGDSEYNIMFGPDICGPGTKKVHVIFNYKGKNVLINKDIRCKDDEFTHLYTLIVRPDNTYEVKIDNSQVESGSLEDDWDFLPPKKIKDPDAAKPEDWDERAKIDDPTDSKPEDWDKPEHIPDPDAKKPEDWDEEMDGEWEPPVIQNPEYKGEWKPRQIDNPDYKGTWIHPEIDNPEYSPDANIYAYDSFAVLGLDLWQVKSGTIFDNFLITNDEAYAEEFGNETWGVTKAAEKQMKDKQDEEQRLKEEEEDKKRKEEEEAEDKEDDDDRDEDEDEEDEKEEDEEESPGQAKDEL | soluble
MFRLRLISGFNFAPIIADAIVDLSKDFFQSDNSEVCCGQILYLAISDEEGPGKPILDSKHVEVILTLDLPEDMDVYEKFGLSAYRQHILLRITQEARDQNALLTIKDLVKLLKSSYSTIIRDLKYFREKGLYVPLRGIVKDIGPSSHKSKIVELYLKGYTTTEIQRSTRHSLQSIERYIKDFSRVSILTQKGESIDNIRLIVGISERLVKEYQELFIKYKDGDNKQRVEELIDNITVYDSPMSFKKNSGMRM | not soluble
